± gives the uncertainty stated by the source.
B1: Double-stranded RNA-specific adenosine deaminase, residues 296 to 358; numbered along this chain, P55265 (parent)
chain: MAEIKEKICDYLFNVSDSSALNLAKNIGLTKARDINAVLIDMERQGDVYRQGTTPPIWHLTDK

Variants of: B1
Test: abundance fitness (aPCA) (normalised: wild type 0, dead -1); higher = more abundant; growth selection in yeast, the domain comes from the species named
Details: Homo sapiens

Variant	abundance fitness
MAEIKEKICDYLFNVSDSSALNLAKNIGWTKARDINAVLIDMERQGDVYRQGTTPPIWHLTDK [L29W]	-0.633 ± 0.23
MAEIKEKICDYLFNVSDSSALNLAKNIGYTKARDINAVLIDMERQGDVYRQGTTPPIWHLTDK [L29Y]	-0.136 ± 0.052
MAEIKEKICDYLFNVSDSSALNLAKNIGLAKARDINAVLIDMERQGDVYRQGTTPPIWHLTDK [T30A]	0.128 ± 0.038
MAEIKEKICDYLFNVSDSSALNLAKNIGLCKARDINAVLIDMERQGDVYRQGTTPPIWHLTDK [T30C]	-0.002 ± 0.065
MAEIKEKICDYLFNVSDSSALNLAKNIGLDKARDINAVLIDMERQGDVYRQGTTPPIWHLTDK [T30D]	0.413 ± 0.053
MAEIKEKICDYLFNVSDSSALNLAKNIGLEKARDINAVLIDMERQGDVYRQGTTPPIWHLTDK [T30E]	0.361 ± 0.051
MAEIKEKICDYLFNVSDSSALNLAKNIGLFKARDINAVLIDMERQGDVYRQGTTPPIWHLTDK [T30F]	-0.246 ± 0.1
MAEIKEKICDYLFNVSDSSALNLAKNIGLGKARDINAVLIDMERQGDVYRQGTTPPIWHLTDK [T30G]	-0.054 ± 0.055
MAEIKEKICDYLFNVSDSSALNLAKNIGLHKARDINAVLIDMERQGDVYRQGTTPPIWHLTDK [T30H]	-0.252 ± 0.095
MAEIKEKICDYLFNVSDSSALNLAKNIGLIKARDINAVLIDMERQGDVYRQGTTPPIWHLTDK [T30I]	-0.299 ± 0.084
MAEIKEKICDYLFNVSDSSALNLAKNIGLLKARDINAVLIDMERQGDVYRQGTTPPIWHLTDK [T30L]	-0.312 ± 0.047
MAEIKEKICDYLFNVSDSSALNLAKNIGLMKARDINAVLIDMERQGDVYRQGTTPPIWHLTDK [T30M]	-0.204 ± 0.072
MAEIKEKICDYLFNVSDSSALNLAKNIGLNKARDINAVLIDMERQGDVYRQGTTPPIWHLTDK [T30N]	0.127 ± 0.1
MAEIKEKICDYLFNVSDSSALNLAKNIGLPKARDINAVLIDMERQGDVYRQGTTPPIWHLTDK [T30P]	-0.199 ± 0.064
MAEIKEKICDYLFNVSDSSALNLAKNIGLQKARDINAVLIDMERQGDVYRQGTTPPIWHLTDK [T30Q]	-0.021 ± 0.086
MAEIKEKICDYLFNVSDSSALNLAKNIGLRKARDINAVLIDMERQGDVYRQGTTPPIWHLTDK [T30R]	-0.352 ± 0.047
MAEIKEKICDYLFNVSDSSALNLAKNIGLSKARDINAVLIDMERQGDVYRQGTTPPIWHLTDK [T30S]	0.107 ± 0.045
MAEIKEKICDYLFNVSDSSALNLAKNIGLVKARDINAVLIDMERQGDVYRQGTTPPIWHLTDK [T30V]	-0.201 ± 0.058
MAEIKEKICDYLFNVSDSSALNLAKNIGLYKARDINAVLIDMERQGDVYRQGTTPPIWHLTDK [T30Y]	0.141 ± 0.078
MAEIKEKICDYLFNVSDSSALNLAKNIGLTAARDINAVLIDMERQGDVYRQGTTPPIWHLTDK [K31A]	-0.098 ± 0.045
MAEIKEKICDYLFNVSDSSALNLAKNIGLTCARDINAVLIDMERQGDVYRQGTTPPIWHLTDK [K31C]	0.237 ± 0.079

Variant	abundance fitness
MAEIKEKICDYLFNVSDSSALNLAKNIGLTDARDINAVLIDMERQGDVYRQGTTPPIWHLTDK [K31D]	0.36 ± 0.1
MAEIKEKICDYLFNVSDSSALNLAKNIGLTEARDINAVLIDMERQGDVYRQGTTPPIWHLTDK [K31E]	0.251 ± 0.083
MAEIKEKICDYLFNVSDSSALNLAKNIGLTFARDINAVLIDMERQGDVYRQGTTPPIWHLTDK [K31F]	-0.695 ± 0.13
MAEIKEKICDYLFNVSDSSALNLAKNIGLTGARDINAVLIDMERQGDVYRQGTTPPIWHLTDK [K31G]	-0.049 ± 0.044
MAEIKEKICDYLFNVSDSSALNLAKNIGLTHARDINAVLIDMERQGDVYRQGTTPPIWHLTDK [K31H]	0.367 ± 0.063
MAEIKEKICDYLFNVSDSSALNLAKNIGLTIARDINAVLIDMERQGDVYRQGTTPPIWHLTDK [K31I]	-1.14 ± 0.37
MAEIKEKICDYLFNVSDSSALNLAKNIGLTLARDINAVLIDMERQGDVYRQGTTPPIWHLTDK [K31L]	-0.53 ± 0.07
MAEIKEKICDYLFNVSDSSALNLAKNIGLTNARDINAVLIDMERQGDVYRQGTTPPIWHLTDK [K31N]	0.144 ± 0.092
MAEIKEKICDYLFNVSDSSALNLAKNIGLTPARDINAVLIDMERQGDVYRQGTTPPIWHLTDK [K31P]	0.041 ± 0.057
MAEIKEKICDYLFNVSDSSALNLAKNIGLTQARDINAVLIDMERQGDVYRQGTTPPIWHLTDK [K31Q]	0.097 ± 0.066
MAEIKEKICDYLFNVSDSSALNLAKNIGLTRARDINAVLIDMERQGDVYRQGTTPPIWHLTDK [K31R]	-0.006 ± 0.036
MAEIKEKICDYLFNVSDSSALNLAKNIGLTSARDINAVLIDMERQGDVYRQGTTPPIWHLTDK [K31S]	0.285 ± 0.042
MAEIKEKICDYLFNVSDSSALNLAKNIGLTTARDINAVLIDMERQGDVYRQGTTPPIWHLTDK [K31T]	0.066 ± 0.055
MAEIKEKICDYLFNVSDSSALNLAKNIGLTVARDINAVLIDMERQGDVYRQGTTPPIWHLTDK [K31V]	-0.67 ± 0.066
MAEIKEKICDYLFNVSDSSALNLAKNIGLTWARDINAVLIDMERQGDVYRQGTTPPIWHLTDK [K31W]	-0.635 ± 0.078
MAEIKEKICDYLFNVSDSSALNLAKNIGLTYARDINAVLIDMERQGDVYRQGTTPPIWHLTDK [K31Y]	0.173 ± 0.11
MAEIKEKICDYLFNVSDSSALNLAKNIGLTKCRDINAVLIDMERQGDVYRQGTTPPIWHLTDK [A32C]	-0.121 ± 0.08
MAEIKEKICDYLFNVSDSSALNLAKNIGLTKERDINAVLIDMERQGDVYRQGTTPPIWHLTDK [A32E]	0.159 ± 0.074
MAEIKEKICDYLFNVSDSSALNLAKNIGLTKFRDINAVLIDMERQGDVYRQGTTPPIWHLTDK [A32F]	-0.091 ± 0.074
MAEIKEKICDYLFNVSDSSALNLAKNIGLTKGRDINAVLIDMERQGDVYRQGTTPPIWHLTDK [A32G]	-0.091 ± 0.049
MAEIKEKICDYLFNVSDSSALNLAKNIGLTKHRDINAVLIDMERQGDVYRQGTTPPIWHLTDK [A32H]	-0.204 ± 0.082

— the Human Domainome abundance scans (Beltran et al. 2025)
